Test [1] relates to progenitor cells in the dentate gyrus. Put plainly: BrdU-positive cell proliferation in normal rats treated with GH. The note with it: normal animals treated one week with GH, compared with normal controls and with hypophysectomized animals substituted one week then unsubstituted 3 weeks. It is filed as in vivo, Fisher rats. As to the method: (§1) The rats had free access to standard laboratory chow and water. Hormonal treatment started 7-10 days after hyophysectomy. All the hypophysectomized rats were given cortisol phosphate (400 μg/kg/day; Solu-Cortef, Upjohn, Puurs, Belgium) and L-thyroxine (10 μg/kg/day; Sigma, USA) diluted in saline as a daily subcutaneous injection (at 0800 h). Recombinant bovine GH (bGH) was diluted in 0.05 M phosphate buffer, pH 8.6, with 1.6% glycerol and 0.02% sodium azide. GH 1 mg/kg/day was given as one daily subcutaneous injection at 24 h intervals. The treatment continued for seven days. Thereafter the rats were sacrificed and the brains taken out and prepared for immunohistochemistry.
Ten hypophysectomized rats were substituted with only cortisole and L-thyroxine. Fifteen hypophysectomized rats were substituted with cortisole, L-thyroxine and GH. […] The thymidine analog BrdU is incorporated into the genetic material upon mitotic division whereafter it can be detected immunohistochemically in the resulting cells. […]
(§2) The number of BrdU positive cells in the dentate gyrus of the hippocampus were counted using unbiased counting techniques. […]
The total number of BrdU positive cells in the granule cell layer, the subgranular layer and the hilus and their corresponding sample volumes were determined in 7-9 coronal sections, […], that contained the dentate gyrus. […]

Test [2] shares this test system. Briefly: BrdU-positive (newborn) cells in the dentate gyrus of hypophysectomized rats. Format: in vivo, Fisher rats.
Description: In this example, the density of BrdU-positive cells in the dentate gyrus of hypophysectomized (Hx) rate treated according to the invention with growth hormone (GH), cortisol (C), and L-thyroxine (T) was compared to the density of BrdU-positive cells in the dentate gyrus of hypophysectomized rats treated with cortisol (C), and L-thyroxine (T), and to the density of the same cells for an untreated unoperated control group.
Fisher rats (Harlan Sprague Dawley) which were inact or hypophysectomized at 50 days of age were mainained under standardized conditions of temperature (24-26° C.), humidity (50-60%) and with lights on between 0500 and 1900 h.
as §1
Ten hypophysectomized rats were substituted with only cortisole and L-thyroxine. […] The thymidine analog BrdU is incorporated into the genetic material upon mitotic division whereafter it can be detected immunohistochemically in the resulting cells. […]
as §2
For the immunofluorescence, sections were treated for DNA denaturation as described above, followed by incubation in TBS-TS for 30 min. Thereafter the sections were incubated with mouse-anti-Calbindin-D28k, 1:2000 (Sigma) for 16 h at 4° C. and was detected with a Texas red conjugated donkey anti-mouse IgG. BrdU was detected with a FITC conjugated rabbit anti-BrdU antibody. […]

B1: GH: Recombinant bovine growth hormone, given 1 mg/kg/day subcutaneously together with cortisol and L-thyroxine (protein, UniProt P01246 27-217, looked up)
Somatotropin: AFPAMSLSGLFANAVLRAQHLHQLAADTFKEFERTYIPEGQRYSIQNTQVAFCFSETIPAPTGKNEAQQKSDLELLRISLLLIQSWLGPLQFLSRVFTNSLVFGTSDRVYEKLKDLEEGILALMRELEDGTPRAGQILKQTYDKFDTNMRSDDALLKNYGLLSCFRKDLHKTETYLRVMKCRRFGEASCAF
With B1, in test [1], the proliferation entry is listed as “increased”. Also, in test [2] (hypophysectomized animals treated with cortisol and L-thyroxine, quantified after one week of substitution), the “rate of proliferation of progenitor cells” value is recorded as “significantly increased”. For the same molecule, in test [2] (hypophysectomized animals, cortisone, thyroxine and GH vs only cortisone and thyroxine, four weeks after the last BrdU injection, FIG. 2), the granulae cell neurons entry is listed as “significantly more granulae cell neurons”. For the same molecule, the “number of newborn cells in the dentate gyrus” value in test [2] (hypophysectomized rats, GH 1 mg/kg/day s.c. plus cortisone and thyroxine, after 7 days, compared to only cortisone and thyroxine, FIG. 1) is listed as “significantly increased”.
